# B1: CR9505 (an antibody based on 131-2G, comprising the heavy and light chain variable region of 131-2G, as disclosed in WO 2009/055711) (antibody, from another filing, V domains shown)
# VH: EVQLQQSGPELVKPGTSVKISCKASGYSFTGFTMNWVKQSHGKNLEWFGLINPFNGNTGYNQKFKGKATLTVDKSSSTAFMELLSLTSEDSAVYYCARSGKSYDYEAWFTYWGQGTLVTVSA
# VL: DIVMTQTTLSLPVSLGNQASISCRSSQTIVHTNGNTYLEWYLQKPGQSPKLLIYKVSNRFSGVPDRFSGSGSGTDFILNISRVEAEDLGVYYCFQGSHVPFTFGSGTKLEIKR
# Molecular target: G protein of RSV A/Long (ATCC Cat. No. VR-26), on virus (Respiratory syncytial virus A/Long) (UniProt P20895)
# Sequence (P20895 whole entry): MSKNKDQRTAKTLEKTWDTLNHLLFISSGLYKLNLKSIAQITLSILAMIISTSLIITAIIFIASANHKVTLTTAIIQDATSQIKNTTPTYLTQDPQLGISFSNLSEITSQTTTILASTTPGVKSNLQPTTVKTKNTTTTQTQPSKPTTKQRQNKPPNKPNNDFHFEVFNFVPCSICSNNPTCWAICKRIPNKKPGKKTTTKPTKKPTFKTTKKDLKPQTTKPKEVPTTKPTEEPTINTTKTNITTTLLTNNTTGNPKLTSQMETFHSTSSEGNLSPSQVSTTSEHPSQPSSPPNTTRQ
# Assay: cell-based or functional assay
binder,measurement,value
B1,"Neutralization IC50, plaque reduction assay, RSV A/Long",0.018 µg/mL
